Data set [1] addresses phytochrome B (phyB), full length (1‒1172) (Arabidopsis) (UniProt P14713).
Data set [2] has as its target PIF6β (1‒182) (Arabidopsis). Nature of the data set: cryo-EM structure; phyB and PIF6β mixed ~1:1.5, on ice under red light (665 nm, 800 μmol m^-2 s^-1), SEC in 25 mM HEPES pH 7.8, 250 mM KCl, 10 mM DTT, 1 mM EDTA; irradiated with red light 20 min before freezing.
Data set [3] deals with the molecule itself. Nature of the data set: cryo-EM structure; phyB^Y276H or phyBN^Y276H mixed with PIF6β ~1:1.5; full-length complex prepared in the dark; SEC on Superose 6 Increase before freezing.
Data set [4] concerns the molecule itself. Nature of the data set: cross-linking; thiol-directed cross-linking with 1 mM M2M, ~2 μM protein, on ice 30 min, under red light (665 nm, 767 μmol m^-2 s^-1); 25 mM Tris-HCl pH 8.0, 150 mM NaCl; reversed by DTT; more cross-linked band with the PIF6 fragment 13-100.
Another data set addresses T1, phyB^Y276H, full length (Arabidopsis, UniProt P14713 1-1172, Y276H, PΦB chromophore covalently bound).
T1 construct: Arabidopsis phytochrome B, residues 1-1172, At2g18790, with Y276H; also called constitutively active mutant phyB^Y276H; source: E. coli BL21(DE3), co-expressed with HO1 and HY2, purified (Ni-NTA, anti-FLAG resin, Source Q); not shown: 3× Flag ([residues removed]), N-terminal, kept
T1 sequence (looked up): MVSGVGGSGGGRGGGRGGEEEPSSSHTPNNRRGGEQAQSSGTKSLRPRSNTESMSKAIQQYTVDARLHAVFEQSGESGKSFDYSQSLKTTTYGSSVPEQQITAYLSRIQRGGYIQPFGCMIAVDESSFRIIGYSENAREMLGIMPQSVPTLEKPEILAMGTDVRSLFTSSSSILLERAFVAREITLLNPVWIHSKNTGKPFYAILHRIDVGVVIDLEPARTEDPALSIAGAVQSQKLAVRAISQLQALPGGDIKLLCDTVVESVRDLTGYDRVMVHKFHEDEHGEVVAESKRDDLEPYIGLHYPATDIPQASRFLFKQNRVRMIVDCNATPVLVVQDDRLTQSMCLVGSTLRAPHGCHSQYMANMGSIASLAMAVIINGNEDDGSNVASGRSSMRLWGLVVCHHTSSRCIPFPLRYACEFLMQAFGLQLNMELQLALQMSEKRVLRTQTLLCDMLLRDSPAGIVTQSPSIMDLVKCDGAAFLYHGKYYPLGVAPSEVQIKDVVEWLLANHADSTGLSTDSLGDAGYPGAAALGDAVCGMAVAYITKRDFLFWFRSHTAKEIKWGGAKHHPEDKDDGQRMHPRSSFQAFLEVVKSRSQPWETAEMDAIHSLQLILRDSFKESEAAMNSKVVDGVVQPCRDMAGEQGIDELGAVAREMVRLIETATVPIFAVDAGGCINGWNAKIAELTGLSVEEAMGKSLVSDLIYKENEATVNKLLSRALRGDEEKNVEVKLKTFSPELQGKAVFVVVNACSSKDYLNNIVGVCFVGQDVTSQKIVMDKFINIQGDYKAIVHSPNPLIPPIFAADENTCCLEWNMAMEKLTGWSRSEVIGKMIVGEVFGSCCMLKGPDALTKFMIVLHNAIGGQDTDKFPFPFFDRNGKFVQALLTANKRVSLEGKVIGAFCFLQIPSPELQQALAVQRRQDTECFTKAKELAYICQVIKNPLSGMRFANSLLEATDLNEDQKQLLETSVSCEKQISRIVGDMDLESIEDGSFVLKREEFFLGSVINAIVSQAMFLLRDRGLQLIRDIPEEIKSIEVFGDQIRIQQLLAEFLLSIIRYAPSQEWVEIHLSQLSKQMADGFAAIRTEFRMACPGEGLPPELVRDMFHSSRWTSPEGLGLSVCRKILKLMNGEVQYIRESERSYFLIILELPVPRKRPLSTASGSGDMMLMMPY
Nature of the data set: pull-down; StrepII-tagged PIF6 forms or PIFNs held on Strep-Tactin Sepharose, 3× Flag-phyB or phyB^Y276H in the mixture; in the dark, 4 °C, 2 h; buffer E (100 mM Tris-HCl pH 8.0, 150 mM NaCl, 1 mM EDTA); SDS-PAGE with Coomassie and zinc-induced fluorescence. Conditions: both partners purified.

PIF6β (1‒182) (natural protein) showed a Pfr→Pr thermal reversion at 25 °C: amount of phyB-Pfr remaining after 400 min with PIF6β against phyB alone in data set [1] of 8 fold.

Molecule “phytochrome B (phyB), full length (1‒1172) (from UniProt P14713 1-1172) (receptor)” showed a stoichiometry N (phyB per PIF6β) in data set [2] of 2.

B1: phyBN^Y276H (1‒908) (domain or fragment, Arabidopsis, UniProt P14713 1-908, looked up)
chain: MVSGVGGSGGGRGGGRGGEEEPSSSHTPNNRRGGEQAQSSGTKSLRPRSNTESMSKAIQQYTVDARLHAVFEQSGESGKSFDYSQSLKTTTYGSSVPEQQITAYLSRIQRGGYIQPFGCMIAVDESSFRIIGYSENAREMLGIMPQSVPTLEKPEILAMGTDVRSLFTSSSSILLERAFVAREITLLNPVWIHSKNTGKPFYAILHRIDVGVVIDLEPARTEDPALSIAGAVQSQKLAVRAISQLQALPGGDIKLLCDTVVESVRDLTGYDRVMVHKFHEDEHGEVVAESKRDDLEPYIGLHYPATDIPQASRFLFKQNRVRMIVDCNATPVLVVQDDRLTQSMCLVGSTLRAPHGCHSQYMANMGSIASLAMAVIINGNEDDGSNVASGRSSMRLWGLVVCHHTSSRCIPFPLRYACEFLMQAFGLQLNMELQLALQMSEKRVLRTQTLLCDMLLRDSPAGIVTQSPSIMDLVKCDGAAFLYHGKYYPLGVAPSEVQIKDVVEWLLANHADSTGLSTDSLGDAGYPGAAALGDAVCGMAVAYITKRDFLFWFRSHTAKEIKWGGAKHHPEDKDDGQRMHPRSSFQAFLEVVKSRSQPWETAEMDAIHSLQLILRDSFKESEAAMNSKVVDGVVQPCRDMAGEQGIDELGAVAREMVRLIETATVPIFAVDAGGCINGWNAKIAELTGLSVEEAMGKSLVSDLIYKENEATVNKLLSRALRGDEEKNVEVKLKTFSPELQGKAVFVVVNACSSKDYLNNIVGVCFVGQDVTSQKIVMDKFINIQGDYKAIVHSPNPLIPPIFAADENTCCLEWNMAMEKLTGWSRSEVIGKMIVGEVFGSCCMLKGPDALTKFMIVLHNAIGGQDTDKFPFPFFDRNGKFVQALLTANKRVSLEGKVIGAFCFLQIPS
modifications: PΦB chromophore covalently bound
notes: Arabidopsis phytochrome B, residues 1-908, with Y276H; also called HKRD-truncated phyBN^Y276H; truncated phyBN^Y276H (M1‒S908); source: E. coli BL21(DE3), co-expressed with HO1 and HY2, purified; not shown: 3× Flag, N-terminal, kept
B1: the binding result in data set [3] is reported as “binds”.

B2: phyB^T449C (with C925S, C936S, C972S and C1121S) (receptor, Arabidopsis, UniProt P14713 1-1172, looked up)
chain: MVSGVGGSGGGRGGGRGGEEEPSSSHTPNNRRGGEQAQSSGTKSLRPRSNTESMSKAIQQYTVDARLHAVFEQSGESGKSFDYSQSLKTTTYGSSVPEQQITAYLSRIQRGGYIQPFGCMIAVDESSFRIIGYSENAREMLGIMPQSVPTLEKPEILAMGTDVRSLFTSSSSILLERAFVAREITLLNPVWIHSKNTGKPFYAILHRIDVGVVIDLEPARTEDPALSIAGAVQSQKLAVRAISQLQALPGGDIKLLCDTVVESVRDLTGYDRVMVYKFHEDEHGEVVAESKRDDLEPYIGLHYPATDIPQASRFLFKQNRVRMIVDCNATPVLVVQDDRLTQSMCLVGSTLRAPHGCHSQYMANMGSIASLAMAVIINGNEDDGSNVASGRSSMRLWGLVVCHHTSSRCIPFPLRYACEFLMQAFGLQLNMELQLALQMSEKRVLRTQCLLCDMLLRDSPAGIVTQSPSIMDLVKCDGAAFLYHGKYYPLGVAPSEVQIKDVVEWLLANHADSTGLSTDSLGDAGYPGAAALGDAVCGMAVAYITKRDFLFWFRSHTAKEIKWGGAKHHPEDKDDGQRMHPRSSFQAFLEVVKSRSQPWETAEMDAIHSLQLILRDSFKESEAAMNSKVVDGVVQPCRDMAGEQGIDELGAVAREMVRLIETATVPIFAVDAGGCINGWNAKIAELTGLSVEEAMGKSLVSDLIYKENEATVNKLLSRALRGDEEKNVEVKLKTFSPELQGKAVFVVVNACSSKDYLNNIVGVCFVGQDVTSQKIVMDKFINIQGDYKAIVHSPNPLIPPIFAADENTCCLEWNMAMEKLTGWSRSEVIGKMIVGEVFGSCCMLKGPDALTKFMIVLHNAIGGQDTDKFPFPFFDRNGKFVQALLTANKRVSLEGKVIGAFCFLQIPSPELQQALAVQRRQDTESFTKAKELAYISQVIKNPLSGMRFANSLLEATDLNEDQKQLLETSVSSEKQISRIVGDMDLESIEDGSFVLKREEFFLGSVINAIVSQAMFLLRDRGLQLIRDIPEEIKSIEVFGDQIRIQQLLAEFLLSIIRYAPSQEWVEIHLSQLSKQMADGFAAIRTEFRMACPGEGLPPELVRDMFHSSRWTSPEGLGLSVSRKILKLMNGEVQYIRESERSYFLIILELPVPRKRPLSTASGSGDMMLMMPY
modifications: PΦB chromophore covalently bound
notes: Arabidopsis phytochrome B (1-1172) with T449C for cross-linking and C925S, C936S, C972S, C1121S against nonspecific cross-linking; source: E. coli BL21(DE3), purified
Regarding B2, in data set [4], the binding result was “binds”.

B3: phyB^Y276H/T449C (with C925S, C936S, C972S and C1121S) (receptor, Arabidopsis, UniProt P14713 1-1172, looked up)
chain: MVSGVGGSGGGRGGGRGGEEEPSSSHTPNNRRGGEQAQSSGTKSLRPRSNTESMSKAIQQYTVDARLHAVFEQSGESGKSFDYSQSLKTTTYGSSVPEQQITAYLSRIQRGGYIQPFGCMIAVDESSFRIIGYSENAREMLGIMPQSVPTLEKPEILAMGTDVRSLFTSSSSILLERAFVAREITLLNPVWIHSKNTGKPFYAILHRIDVGVVIDLEPARTEDPALSIAGAVQSQKLAVRAISQLQALPGGDIKLLCDTVVESVRDLTGYDRVMVHKFHEDEHGEVVAESKRDDLEPYIGLHYPATDIPQASRFLFKQNRVRMIVDCNATPVLVVQDDRLTQSMCLVGSTLRAPHGCHSQYMANMGSIASLAMAVIINGNEDDGSNVASGRSSMRLWGLVVCHHTSSRCIPFPLRYACEFLMQAFGLQLNMELQLALQMSEKRVLRTQCLLCDMLLRDSPAGIVTQSPSIMDLVKCDGAAFLYHGKYYPLGVAPSEVQIKDVVEWLLANHADSTGLSTDSLGDAGYPGAAALGDAVCGMAVAYITKRDFLFWFRSHTAKEIKWGGAKHHPEDKDDGQRMHPRSSFQAFLEVVKSRSQPWETAEMDAIHSLQLILRDSFKESEAAMNSKVVDGVVQPCRDMAGEQGIDELGAVAREMVRLIETATVPIFAVDAGGCINGWNAKIAELTGLSVEEAMGKSLVSDLIYKENEATVNKLLSRALRGDEEKNVEVKLKTFSPELQGKAVFVVVNACSSKDYLNNIVGVCFVGQDVTSQKIVMDKFINIQGDYKAIVHSPNPLIPPIFAADENTCCLEWNMAMEKLTGWSRSEVIGKMIVGEVFGSCCMLKGPDALTKFMIVLHNAIGGQDTDKFPFPFFDRNGKFVQALLTANKRVSLEGKVIGAFCFLQIPSPELQQALAVQRRQDTESFTKAKELAYISQVIKNPLSGMRFANSLLEATDLNEDQKQLLETSVSSEKQISRIVGDMDLESIEDGSFVLKREEFFLGSVINAIVSQAMFLLRDRGLQLIRDIPEEIKSIEVFGDQIRIQQLLAEFLLSIIRYAPSQEWVEIHLSQLSKQMADGFAAIRTEFRMACPGEGLPPELVRDMFHSSRWTSPEGLGLSVSRKILKLMNGEVQYIRESERSYFLIILELPVPRKRPLSTASGSGDMMLMMPY
modifications: PΦB chromophore covalently bound
notes: Arabidopsis phytochrome B (1-1172) with Y276H, T449C and C925S, C936S, C972S, C1121S; source: E. coli BL21(DE3), purified
As to B3, in data set [4], the binding result is “binds”.

B4: PIF6α (1‒363) (natural protein, Arabidopsis, UniProt Q8L5W7 1-363, looked up)
chain: MMFLPTDYCCRLSDQEYMELVFENGQILAKGQRSNVSLHNQRTKSIMDLYEAEYNEDFMKSIIHGGGGAITNLGDTQVVPQSHVAAAHETNMLESNKHVDDSETLKASSSKRMMVDYHNRKKIKFIPPDEQSVVADRSFKLGFDTSSVGFTEDSEGSMYLSSSLDDESDDARPQVPARTRKALVKRKRNAEAYNSPERNQRNDINKKMRTLQNLLPNSHKDDNESMLDEAINYMTNLQLQVQMMTMGNRFVTPSMMMPLGPNYSQMGLAMGVGMQMGEQQFLPAHVLGAGLPGINDSADMLRFLNHPGLMPMQNSAPFIPTENCSPQSVPPSCAAFPNQIPNPNSLSNLDGATLHKKSRKTNR
notes: Modified pCold TF vector; purified on Ni resin, so a His tag is likely present but is not described; also called full-length PIF6α; source: E. coli BL21(DE3), purified (Ni-NTA, Strep-Tactin, Source Q); not shown: StrepII, C-terminal, kept
Consider B4, for which the binding result in the data set with phyB^Y276H, full length was “binds”.

The record behind these values is publication PMC12098889, “Structural insight into PIF6-mediated red light signal transduction of plant phytochrome B” (Cell Discovery, 2025).
